Earlier results on 1 substance are cited in PMC3267162.

Series [1] deals with PTPzeta (Homo sapiens) (UniProt P23471).
For series [2] the target is unchanged. The source holds these as a separate data set.
The next series concerns the target LRP (Homo sapiens) (UniProt Q07954).

Where two headings read alike, the source gives them in different places.

Chain of UniProt P23471 (P23471 25-1636): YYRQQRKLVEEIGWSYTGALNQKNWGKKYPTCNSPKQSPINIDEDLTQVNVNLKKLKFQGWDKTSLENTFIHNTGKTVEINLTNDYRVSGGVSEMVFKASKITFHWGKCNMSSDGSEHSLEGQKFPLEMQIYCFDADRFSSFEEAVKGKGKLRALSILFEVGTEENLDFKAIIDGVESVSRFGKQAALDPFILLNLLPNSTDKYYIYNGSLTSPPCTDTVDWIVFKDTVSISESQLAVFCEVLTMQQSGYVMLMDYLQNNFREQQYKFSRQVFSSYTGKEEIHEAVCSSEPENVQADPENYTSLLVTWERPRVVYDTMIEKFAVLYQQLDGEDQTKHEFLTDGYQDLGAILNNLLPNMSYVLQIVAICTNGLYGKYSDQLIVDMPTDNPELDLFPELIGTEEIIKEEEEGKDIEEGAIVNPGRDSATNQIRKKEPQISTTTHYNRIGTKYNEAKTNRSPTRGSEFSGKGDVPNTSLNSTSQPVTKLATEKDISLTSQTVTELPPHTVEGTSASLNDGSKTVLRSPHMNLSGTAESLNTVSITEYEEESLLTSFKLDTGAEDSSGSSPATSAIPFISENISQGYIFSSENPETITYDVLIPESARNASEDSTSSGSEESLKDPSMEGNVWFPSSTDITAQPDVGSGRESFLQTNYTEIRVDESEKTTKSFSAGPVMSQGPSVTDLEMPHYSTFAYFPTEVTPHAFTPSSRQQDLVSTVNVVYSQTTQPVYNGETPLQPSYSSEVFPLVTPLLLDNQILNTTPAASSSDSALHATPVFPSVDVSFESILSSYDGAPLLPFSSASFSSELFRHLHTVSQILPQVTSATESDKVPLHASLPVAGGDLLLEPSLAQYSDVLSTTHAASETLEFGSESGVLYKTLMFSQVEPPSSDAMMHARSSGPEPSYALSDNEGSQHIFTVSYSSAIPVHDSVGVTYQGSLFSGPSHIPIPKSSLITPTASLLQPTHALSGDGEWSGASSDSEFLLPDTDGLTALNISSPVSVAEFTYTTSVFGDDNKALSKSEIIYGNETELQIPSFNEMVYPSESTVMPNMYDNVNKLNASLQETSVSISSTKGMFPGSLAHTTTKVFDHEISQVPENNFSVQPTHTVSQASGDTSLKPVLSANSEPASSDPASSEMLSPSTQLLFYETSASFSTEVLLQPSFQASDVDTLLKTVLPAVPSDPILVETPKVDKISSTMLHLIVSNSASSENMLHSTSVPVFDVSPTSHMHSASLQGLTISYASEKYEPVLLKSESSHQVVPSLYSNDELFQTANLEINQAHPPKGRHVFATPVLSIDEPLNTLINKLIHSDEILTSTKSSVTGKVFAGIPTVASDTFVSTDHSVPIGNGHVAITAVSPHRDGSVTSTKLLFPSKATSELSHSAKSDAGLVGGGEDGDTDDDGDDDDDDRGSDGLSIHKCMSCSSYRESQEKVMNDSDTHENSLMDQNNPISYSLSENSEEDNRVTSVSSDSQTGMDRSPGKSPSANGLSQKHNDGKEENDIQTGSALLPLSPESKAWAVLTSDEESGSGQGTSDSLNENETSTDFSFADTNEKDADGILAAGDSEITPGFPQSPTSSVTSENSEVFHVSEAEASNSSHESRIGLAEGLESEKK

The term Kd denotes a measure of binding affinity in units of concentration. For the substance Midkine (from UniProt P21741), the Kd with PTPzeta (Homo sapiens) [1] is 8.8 nM; with PTPzeta (Homo sapiens) [2] it was 0.58 nM; in the series with LRP (Homo sapiens), 3.5 nM.
